Key:
D16G TCL1 = D16G TCL1 (UniProt P56279)
[1] = tested on: T1, peptide having repetitive sequence of 11-23 from 10-24 (NH2-VTDHPDRLWAWEK-RRR-VTDHPDRLWAWEK-COOH)
T1 sequence: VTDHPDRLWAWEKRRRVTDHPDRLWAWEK

[2] = tested on: T2, 10/24 peptide (amino acid residue 10-24 of human TCL1, NH2-AVTDHPDRLWAWEKF-COOH)
T2 sequence: AVTDHPDRLWAWEKF

Chain of D16G TCL1 (P56279 whole entry D16G): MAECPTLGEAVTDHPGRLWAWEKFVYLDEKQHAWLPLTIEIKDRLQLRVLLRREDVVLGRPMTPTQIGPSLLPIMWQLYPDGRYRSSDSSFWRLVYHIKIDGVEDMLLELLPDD

Row | Substance | Akt kinase activity in an in vitro kinase assay (GSK-3a phosphorylation, Akt Ser-473 phosphorylation) (D16G TCL1) | In vitro Akt kinase assay, GSK phosphorylation [1] | In vitro Akt kinase assay, GSK phosphorylation by western blotting, peptide at 200 µM [2]
1 | Akt (in vitro kinase assay of Example 1) | D16G TCL1 did not affect the Akt kinase activity even though in a dose escalation experiment |  | 
2 | Recombinant Akt protein extracted from mammalian cells |  | The similar inhibition effect on Akt kinase activity was also identified | the 10/24 peptide was effectively inhibited the phosphorylation potency for GSK peptide of Akt

From patent publication US20120034651
